# Reference: the nanobody polyreactivity screen of Harvey et al. (2022)
# Assay: yeast display, Sf9 membrane polyspecificity reagent, FACS + sequencing; frameworks hold sequencing errors
# How it was run: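 Using colony PCR, genes from sorted yeast display clones were amplified, then sequenced on MiSeq at 2 × 250 and filtered by CDR length. The clones had been stained with 10% biotinylated, detergent-solubilized Sf9 membrane reagent for 1 hour at 4 °C and sorted by FACS into low and high (top ~1%) gates on anti-HA and streptavidin fluorescence. Polyreactivity labels come from the gate of origin.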
row,Sequence,polyreactivity (PSR sort gate)
1,QVQLVESGGGLVQAGGSLRLSCAASGFIFDSYAMGWYRQAPGKERELVATITKGGGRTYYADSVKGRFTISRDNAKNTVYLQMNSLKPEDTAVYYCNARGFSRRKGLDYWGQGTQVTVSS,low polyreactivity
2,QVQLVESGGGLVQAGGSLRLSCAASGFIFDTYAMGWYRQAPVKERELVAAISWTGTDTYYADSVKGRFTISRDNAKNTVYLQMNSLKPEDTAVYYCAARSRYKYSPSGDYWGQGTQVTVSS,high polyreactivity
3,QVQLVESGGGLVQAGGSLRLSCAASGFIFDVNALGWSRQATGKERELVATISKRGGTTYYADSVKGRFTISRDNAKNTVYLQMYSLKPDDTAVYYCAARHQTLRSYRYDYWGQGTQVTVSS,low polyreactivity
4,QVQLVESGGGLVQAGGSLRLSCAASGFIFDWYTMGWYRQAPGKERELVAAITIGGSTDYADSVKGRFTISRDNAKNTVYLQMNSLKPEDTAVYYCNALWYLSGTWYDYWGQGTQVTVSS,low polyreactivity
5,QVQLVESGGGLVQAGGSLRLSCAASGFIFDYNTMGWYRQAPGKERELVADISGGGGRTYYADSVKGRFTISRDNAKNTVYLQMNSLKPEDTAVYYCAALGFYHHAWWISYDYWGQGTQVTVSS,low polyreactivity
6,QVQLVESGGGLVQAGGSLRLSCAASGFIFDYYAMGWDRQAPGKESELVAAIRRSGGTTYYADSVKGRFTISRDNAKNTVYLLMNSLKPEDTAVYYCNVDSGEFDYVWVYTYDYWGQGTQVTVSS,low polyreactivity
7,QVQLVESGGGLVQAGGSLRLSCAASGFIFDYYAMGWYRQAPGKERELVAAISGRGGSTYYADSVKGRFTISRDNAKNTVYLQMNSLKPEDTAVYYCAKGVERYTYGSYWYDYWGQGTQVTVSS,high polyreactivity
8,QVQLVESGGGLVQAGGSLRLSCAASGFIFDYYAMGWYRQAPGKERELVAAITSRSGSTYYADSVKGRFTISRDNAKNTVYLQMNSLKPEDTAVYYCARRFKYGSTAWRFYYWGQGTQVSVSS,high polyreactivity
9,QVQLVESGGGLVQAGGSLRLSCAASGFIFDYYAMGWYRQAPGKERELVASISGDDGRTYYADSVTGRFTISRDNAKNTVYLQMNSLKPEDTAVYDCNAEWGVLNYDYWGQGTQVTVSS,low polyreactivity
10,QVQLVESGGGLVQAGGSLRLSCAASGFIFDYYAMGWYRQAPGKERELVGAITSGDSTNYADSVKGRFTISRDNAKNTVYLQMNSLKPEDTAVYYWGQGTQVTVSS,low polyreactivity
11,QVQLVESGGGLVQAGGSLRLSCAASGFIFEGNAMGWYRPAPGKERELVAAISWSGGRTFYADSVKGRFTISRDNAKNTVYLQMNSLKPEDTAVYYCNALPGRRRWQVDYWGQGTQVTVSS,high polyreactivity
12,QVQLVESGGGLVQAGGSLRLSCAASGFIFEHYAMGWYRQAPGKERELVARISWRGGSTYYGDSVKGRFTISRDNAKNTVYLQMNSLKPEDTAVYYCAKYAHGHKWYGYWGQGTQVTVSS,low polyreactivity
13,QVQLVESGGGLVQAGGSLRLSCAASGFIFEKYTMGWYRQAPGKERELVAAITWNGGSTYYADSVKGRFTISRDNAKNTVYLQMNSLKPEDTAVYYCAARVGWNKRRYDYWGQGTQVTVSS,low polyreactivity
14,QVQLVESGGGLVQAGGSLRLSCAASGFIFEYYAMGWYRQAPGKERELVAAISQSGGSTYYADSVKGRFTISRDNAKNTVYLQMNSLKPEDTAVYYCNKTRYSRSYYEYDYWGQGTQVTVSS,low polyreactivity
15,QVQLVESGGGLVQAGGSLRLSCAASGFIFEYYVMGWYRQAPGKERELVAAISGSGGSTNYADSVKGRFTISRDNAKNTVYLQMNSLKPEDTAVYYCAARYYYFSANIFRYYYWGQGTQVTVSS,high polyreactivity
16,QVQLVESGGGLVQAGGSLRLSCAASGFIFEYYVMGWYRQAPGKERELVAAISSSDGSTNYADSVKGRFTISRDNAKNTVYLQMNSLKPEDTAVYYCAKDLLKSYNRVVVDADDYWGQGTQVTVSS,low polyreactivity
17,QVQLVESGGGLVQAGGSLRLSCAASGFIFFGYAMGWYRQAPGKEMELVAAITSGGSTYYADSVKGRFTISRDNAKNTVYLQMNSLKPEDSAVYYCAAVRWYGSKRYGYWGQGTQVTVSS,high polyreactivity
18,QVQLVESGGGLVQAGGSLRLSCAASGFIFFGYAMGWYRQAPGKERELVAAITSGGSTYYADSVKGRFTISRDNAKNTVYLQMNSLKPEDTAVYYCAASRVRYSYGYPYYYWGQGTQVTVSS,high polyreactivity
19,QVQLVESGGGLVQAGGSLRLSCAASGFIFFINDMGWYRQAPGKERELVAAISWSGGSTYYADSVKGRFTLSRDNAKNTVYLQMNSLKPEDTAVNYCNTDVPTAQYDYWGQGSQVTVSS,low polyreactivity
20,QVQLVESGGGLVQAGGSLRLSCAASGFIFFKYVMGWYRPAPGKERELVAAISTTGGRTYYADSVKGRFTISRDNAKNTVYLQMNSLKPEDTAVYYCAADYPVWNHGFDYWGQGTQVTVSS,high polyreactivity
21,QVQLVESGGGLVQAGGSLRLSCAASGFIFFRYAMGWYRQAPGKERELVAAISSSGGSTYYADSVKGRFTISRDNAKNTVYLQMNSLKPEDTAVYYCAAPRYRIFVGLGMEYWGQGTQVTVSS,high polyreactivity
22,QVQLVESGGGLVQAGGSLRLSCAASGFIFFTYAMGWYRQSPGKERELVAAISSRGGSTYYADSVKGRFTISRDNAKNTVYLQMNSLKPEDTAVYYCAAQAYGRYPYGYWGQGTQVTVSS,high polyreactivity
23,QVQLVESGGGLVQAGGSLRLSCAASGFIFFYAMGWYRQAPGKERELVAAISSRGGSTYYADSVKGRFTISRDNAKNTVYLQMNSLKPEDTAVYYCAALLWSAESDYWGQGTQVTVSS,high polyreactivity
24,QVQLVESGGGLVQAGGSLRLSCAASGFIFGAYAMGWYRQAPGKESELVAAISWSGGRTYYADSLTGRFTISRDNAKNTVYLQMNSLKPEDTAVYYCAAAVYTTRYSASEYWGQGTEVTVSS,high polyreactivity
25,QVQLVESGGGLVQAGGSLRLSCAASGFIFGDKAMGWYRQAPGKERELVAAINSGSRTSYADSVKGRFTISRDNAKNTVYLQMNSLNPEDTAVYYCAAESVSSGDNASRYDYWGQGTQVTVSS,low polyreactivity
26,QVQLVESGGGLVQAGGSLRLSCAASGFIFGDYAMGWYRPAPGKERELVAAITWSGDGTYYADSVKGRFTISRDNAKNTVYLQMNSLKPEDTAVYYCAADFSPRRYHNRSFGYWGQGTQVTVSS,low polyreactivity
27,QVQLVESGGGLVQAGGSLRLSCAASGFIFGDYAMGWYRQAPGKERELVAAIRCSDSTTYYADSVKGRFTISRDNAKNTVYLQMNSLKPEDTAVYYCAAVGVVPRKKSARVYYWGQGTQVTVSS,low polyreactivity
28,QVQLVESGGGLVQAGGSLRLSCAASGFIFGFYAMGGYRQAPGKERELVAAISWSGGSTYYADSVKGRFTISRDNAKNTVYLQMNSLKPEDTAVYYCAAYFYYLDDAVTYDYWGQGTQVTVSS,low polyreactivity
29,QVQLVESGGGLVQAGGSLRLSCAASGFIFGFYAMGWYRQAPGKERELVAAISSSGGSTYYADSVKGRFTISRDTAKNTGYLQMNSLKPEDTAVYYCAAYFYYLDDAVTYDYWGQGTQVTVSS,low polyreactivity
30,QVQLVESGGGLVQAGGSLRLSCAASGFIFGGNAMGWYRQAPGKERELVAAISKSGGRTYYADSVKGRFTISRDNAKNTVYLQMNSLKPEDTAVYYCAAVPGRTAEDYGEDYWGQGTQVTVSS,high polyreactivity
